For one data set, the target named is OGG1 (UniProt O15527 1-345). The data set can be described thus: EMSA; OGG1 alone; more complex when NF-kB present; 10 mM Tris-HCl pH 8.0, 5 mM NaCl, 1 mM EDTA, 1 mM DTT, 0.1 mg/ml BSA, 0.1 µg/µl poly(dI-dC) (stated for NE reactions), 10 fmol probe, 10 µl, RT 5-10 min; 6% gel 0.5x TBE 4 °C. The settings on record: protein: commercial; label: 5' biotin on strand 2; blunt. (Mobility shift assays separate free from complexed probe on a gel.)

Another data set deals with p65 (RelA) (UniProt Q04206 1-551). In words: EMSA; 15 ng p65 (also 7.5 ng series) with OGG1; 10 mM Tris-HCl pH 8.0, 5 mM NaCl, 1 mM EDTA, 1 mM DTT, 0.1 mg/ml BSA, 0.1 µg/µl poly(dI-dC) (stated for NE reactions), 10 fmol probe, 10 µl, RT 5-10 min; 6% gel 0.5x TBE 4 °C. The following applies: protein: commercial; chain copies: 2; label: 5' biotin on strand 2; blunt.
p65 (RelA), sequence (Q04206 whole entry): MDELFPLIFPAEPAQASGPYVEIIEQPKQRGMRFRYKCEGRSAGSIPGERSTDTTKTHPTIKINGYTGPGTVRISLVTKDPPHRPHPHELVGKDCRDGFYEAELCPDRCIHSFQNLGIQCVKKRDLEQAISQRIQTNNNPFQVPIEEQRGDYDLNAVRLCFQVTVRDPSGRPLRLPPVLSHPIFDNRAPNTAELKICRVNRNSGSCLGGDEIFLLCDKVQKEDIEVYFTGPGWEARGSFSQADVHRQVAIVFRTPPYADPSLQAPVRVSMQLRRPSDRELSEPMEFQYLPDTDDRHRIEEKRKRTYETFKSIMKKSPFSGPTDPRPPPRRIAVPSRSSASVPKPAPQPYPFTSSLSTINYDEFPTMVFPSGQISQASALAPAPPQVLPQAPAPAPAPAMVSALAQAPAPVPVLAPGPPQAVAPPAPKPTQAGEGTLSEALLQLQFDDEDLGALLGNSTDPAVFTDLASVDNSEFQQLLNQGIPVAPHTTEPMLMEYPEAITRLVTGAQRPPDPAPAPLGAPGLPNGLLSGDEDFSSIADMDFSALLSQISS
Data set [1] addresses T1, p50 (NF-kB1) (UniProt P19838 1-433). The data set can be described thus: EMSA; p50 alone; mildly enhanced by 1 ng OGG1; 10 mM Tris-HCl pH 8.0, 5 mM NaCl, 1 mM EDTA, 1 mM DTT, 0.1 mg/ml BSA, 0.1 µg/µl poly(dI-dC) (stated for NE reactions), 10 fmol probe, 10 µl, RT 5-10 min; 6% gel 0.5x TBE 4 °C. The settings on record: protein: commercial; chain copies: 2; label: 5' biotin on strand 2; blunt.

Data set [2] deals with T1, p50 (NF-kB1). The data set can be described thus: EMSA; homodimer formed in p65/p50 mix, no OGG1; from 1 min; 10 mM Tris-HCl pH 8.0, 5 mM NaCl, 1 mM EDTA, 1 mM DTT, 0.1 mg/ml BSA, 0.1 µg/µl poly(dI-dC) (stated for NE reactions), 10 fmol probe, 10 µl, RT 5-10 min; 6% gel 0.5x TBE 4 °C. The following applies: protein: commercial; chain copies: 2; label: 5' biotin on strand 2; blunt.

T1 sequence (P19838 1-433): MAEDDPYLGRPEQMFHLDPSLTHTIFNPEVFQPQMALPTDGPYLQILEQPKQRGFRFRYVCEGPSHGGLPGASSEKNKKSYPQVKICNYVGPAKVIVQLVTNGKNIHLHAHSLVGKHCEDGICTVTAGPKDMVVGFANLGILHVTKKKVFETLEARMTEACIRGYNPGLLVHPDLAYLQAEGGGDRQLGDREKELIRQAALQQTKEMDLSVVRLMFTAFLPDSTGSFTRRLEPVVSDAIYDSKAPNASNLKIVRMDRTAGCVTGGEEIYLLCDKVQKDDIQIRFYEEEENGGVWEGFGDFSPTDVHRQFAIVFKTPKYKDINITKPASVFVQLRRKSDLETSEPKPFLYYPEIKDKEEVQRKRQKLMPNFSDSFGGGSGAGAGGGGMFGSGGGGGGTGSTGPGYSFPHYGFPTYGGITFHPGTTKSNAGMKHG
OGG1, sequence (O15527 whole entry): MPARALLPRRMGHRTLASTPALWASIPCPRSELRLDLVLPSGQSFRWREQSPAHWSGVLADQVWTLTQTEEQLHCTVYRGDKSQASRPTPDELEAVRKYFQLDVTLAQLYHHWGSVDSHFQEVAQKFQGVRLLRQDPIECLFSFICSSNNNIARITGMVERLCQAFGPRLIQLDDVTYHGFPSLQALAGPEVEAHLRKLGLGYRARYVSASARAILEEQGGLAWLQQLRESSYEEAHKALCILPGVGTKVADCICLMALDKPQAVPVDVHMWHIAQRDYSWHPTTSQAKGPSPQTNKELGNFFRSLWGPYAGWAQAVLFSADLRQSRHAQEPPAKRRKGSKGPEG

B1: κB2-G6 (dsDNA)
DNA 1: TGAGGGGACCCTGAGCTCAGGGAATTTCCCTGG
DNA 2: CCAGGGAAATTCCCTGAGCTCAGGGTCCCCTCA
modifications: 8-oxoG at strand 2 position 23 (opposite C11 of strand 1)
For B1, the binding result in the data set with OGG1 and with p50 (NF-kB1) [1] was “binds” each time. In the data set with p65 (RelA), this molecule displayed a binding signal above 10 fold vs p65 alone.

B2: κB2-Wt (dsDNA)
DNA 1: TGAGGGGACCCTGAGCTCAGGGAATTTCCCTGG
DNA 2: CCAGGGAAATTCCCTGAGCTCAGGGTCCCCTCA
Take B2: the binding result with p50 (NF-kB1) [2] was “binds”.
